Data published in the DeepSol protein solubility set.

Assay: soluble on expression in E. coli; label from the status in PepcDB or PDB records

Sequence | soluble on expression in E. coli
MTPDLKTSPPPATLFSEDAEAIAKYLDESAKNGRDSGKNKSTQIRRFYDELVGWQERIGTDEQKFRDYAAFIHMLNAKAAYAQGRNLVTREFVQWLRDCIKQIDGPRTLNHFRLHFEAMIGFLKAIRG | not soluble
MEYRMFDIGVNLTSSQFAKDRDDVVACAFDAGVNGLLITGTNLRESQQAQKLARQYSSCWSTAGVHPHDSSQWQAATEEAIIELAAQPEVVAIGECGLDFNRNFSTPEEQERAFVAQLRIAADLNMPVFMHCRDAHERFMTLLEPWLDKLPGAVLHCFTGTREEMQACVAHGIYIGITGWVCDERRGLELRELLPLIPAEKLLIETDAPYLLPRDLTPKPSSRRNEPAHLPHILQRIAHWRGEDAAWLAATTDANVKTLFGIAF | soluble
MTVYFIGAGPGAADLITVRGQRLLQRCPVCLYAGSIMPDDLLAQCPPGATIVDTGPLTLEQIVRKLADADADGRDVARLHSGDPSLYSALAEQCRELDALGIGYEIVPGVPAFAAAAAALKRELTVPGVAQTVTLTRVATLSTPIPPGEDLAALARSRATLVLHLAAAQIDAIVPRLLDGGYRPETPVAVVAFASWPQQRTLRGTLADIAARMHDAKITRTAVIVVGDVLTAEGFTDSYLYSVARHGRYAQ | not soluble
MQTGNGEYHMGNTMTKAIYEKFKSATPYGNTVATGAIPTETVDIAVNVGGFKVGDQNYPINPKVTFTNNTGQDIPGGTEFQFDIPVSAPDNAKDQSGGGLQVIASGHTRPNNIGGLDGTMHRVAFTLPAWKALPAGGVYELDMVYYLPISGPANYTVNINNVDYAFKFEQPDLPLADLSSLEHHHHHH | soluble
MGSDKIHHHHHHMNDQLTEYRIKKAPYYRATGDETELYEAAYSVRMPMMLKGPTGCGKTRFVEYMAYKLGKPLITVACNEDMTASDLVGRFLLDPQGTRWQDGPLTLAARLGAICYLDEVVEARQDTTVVIHPLTDNRRVLPLEKKGELVQAHPDFQLVISYNPGYQSLMKDLKQSTKQRFGALDFNYPDHEIEAEIVSHETGVNKEVADKLVSIAERARNLKGHGLDEGISTRMLVYAGSLINKGVEAKAACRVTLVRPITDDPDMRDALDAAVTTYF | not soluble
MTDNSQFHAASALVQAAHTVSVVGHLRPDADAIGSVAATVAALQQLGKDAVGAIGQLDSMPENLYTIPGASNIKFGDSLPESDLIIVVDCGSIERTGAFESIIVNNPDKVLVVDHHATNPGFGAVNLIDVEAESTTTILYDWFDAMSVQITPDIAHGLYAGLLTDTGCFRWGRPVMHDMAKELMEFGLDIRAISSALLDQTSVDDLRLVGQIVSRIELREAGPYTLAVLVADFDTINGRSRAVVEGLIEMVRAVEGADFGAVFKEYERGVYTVSLRSSNLSVASLAVHLGGGGHIPAAGYTARGTEIEALDTLIEATVTLGESLRSSAHVDVLEHHHHHH | soluble
MGSDKIHHHHHHMFSSPLELFKALTQIPHSSGDTTLMQKFLIQSAQSFGALVSVDSAGNILCQKGDSPRFCLQAHYDMVCVGKAPEIELFEEGGWLRAKDSSLGADNGAALACFLILLKQESSIEILFTNDEEIGMLGAKALELTPSAPLILNVDSESLQEVVISCAGGYDLELEIPATFKETPAEGYLYELSTQNFLGGHSGIDIIKNHPNALVEMAHLLASLPVEILSFEGGEKSNSIPVHAKASLFSSRPLEHLPSWIRATARPLSSPLKALDQTPLLDLLRALHSGIFAYDEESSGVLDSLNISLLKAHEKGWTLTLMGRANDKERLWRNLERARLIARAFGIKEDRLKDFYPPWEKAKSSSYLEKIKEVYERELGVCHVRSIHAGLECAVLQEKLPKAEFISIGPTILHPHSTREALDIKSFERFWEILQIITKVL | not soluble
MIHLYDAKSFAKLRAAQYAAFHTDAPGSWFDHTSGVLESVEDGTPVLAIGVESGDAIVFDKNAQRIVAYKEKSVKAEDGSVSVVQVENGFMKQGHRGWLVDLTGELVGCSPVVAEFGGHRYASGMVIVTGKGNSGKTPLVHALGEALGGKDKYATVRFGEPLSGYNTDFNVFVDDIARAMLQHRVIVIDSLKNVIGAAGGNTTSGGISRGAFDLLSDIGAMAASRGCVVIASLNPTSNDDKIVELVKEASRSNSTSLVISTDVDGEWQVLTRTGEGLQRLTHTLQTSYGEHSVLTIHTSKQSGGKQASGKAIQTVIKNDELESVLRRLTSN | soluble
MGSDKIHHHHHHMGVMMKQKIKILTVIGLMTVGMSACHNTSKPSNTDSVFSLTGKKRQQIVKQVRQRYYFQQLSKTEQENYLTLYDSLAQFREIISLTPASKKSLIKTIDAFVMDNPEFYWITSADYRFEFSDQTVFVTFPIPEDAKNIYQDLQAIGNDIVANTPSKDRYEQVKYFYEVIIRDTDYNKKAFEAYQSGSQAQVASNQDIKSVFIDHLSVCNGYAQAFQFLCQKAGIPVAYIRGTGTSQQPQQSFAHAWNAVQINNTYYGVDVTWGDPVFDNHLSHQKQGTINYSFLCLPDYLMALSHQPSKDIAFNTKERFENVWTIPSCTDDSLLYSKRHQSYISTFDSDAILASLENQLLNRQEPLSLQFAHQDDYQQMVTDLTTNQTGYHNLFNQYWNNYTGFTYGLLPETLSISFASRN | not soluble
MSLSSAYDRKNLEKKNRELRELNDKIGDVAKTFETLQLELYNDLIKEFSKDLTSWNATIDPDNTIRFKEPDVLFDSGKSQVKERFKVVLDDFFPRYVKILSQEKYKGDIEEIRIEGHTSSEWLNAKTLEERYLGNAALSQARAFEVLKYCFALERIKGEQDWLIKVLRANGLSFAKPLDSEEHSRRVEFRTLTRSHQKMLKILDLSKEGHHHHHH | soluble
MKDLLTRRFVLNSKEVREGDVFVAVKGKRFDGHDFIDEALRNGAYAIIAERKTVNSDRIFLVESSVDTLAKLAREKLGNFSGTVVGVTGSSGKTTTKEILYNLLKNKRSVFKTPGNMNTEYGLPLSILNDYKGEEILVLEMAASRPGDIAHLCKIAPPDVAVLLNVGSAHLEFFGTRERIMETKMEIIKHSKENAIAVTLFDDPDLRKEVPRYRNTLFFGKEGGDSVLKDWWYYEGSTIAEFEAFDSLFTVKLSGYWNGGQLLNIAASLCVMRTLGETVDIFDLASLKTVPGRFNVREKKGVLIVDDTYNASPEAFQTSIEALLRFPGKKFAVVGAMKELGERSKEFHEELGERLNVLDGVYVFLSEPEAEWIKSKKIILKSDDPEKIAKDLATRVKKGDVVLFKASRAVRIERVLEMFEKELEKR | soluble
MTTILAFDIETVPDVQGIRTLYELPSSLPDDEVVLFAQQKRRAQTGGDFMQHHLHQVVAISCCMRWGQDKVHVGTIGEMDDGEEVVIAKFFELIEKHTPQLVSWNGGGFDLPVLHYRSLIYGINAARYWDMGDGDFGDSRDFKWNNYISRYHQRHCDLMDLLALYQPRANVPLDDMAKLCGFPGKLGMDGSKVWEAFHTGRLKEIRNYCETDAANTYLMYLRFCLVSGRLDADEYEMEIKRMRNYLSAQAGEKPHWEEFVRAWE | not soluble
